Measurements as given in patent US20210011017A1.

Key:
[1] = molecular target: streptavidin (NEB, Cat #A00160) (UniProt P22629); assay: ELISA, streptavidin well without peptide, secondary antibody only
[2] = molecular target: recombinant BoHV-1 gE CT-His polypeptide (Bovine herpesvirus type 1) (UniProt Q08101); assay: ELISA on coated gE CT-His, secondary antibody only (negative control)
[3] = molecular target: recombinant BoHV-1 gE CT-His polypeptide (Bovine herpesvirus type 1) (UniProt Q08101); assay: competitive ELISA on gE CT-His; serum, then HRP-MAb 2H8F3 (competitor); negative control reference

UniProt P22629, sequence (P22629 37-163 limits assumed): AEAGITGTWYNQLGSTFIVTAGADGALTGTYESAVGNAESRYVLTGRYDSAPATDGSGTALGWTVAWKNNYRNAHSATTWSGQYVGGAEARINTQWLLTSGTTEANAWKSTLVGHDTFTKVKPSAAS

“goat anti-mouse IgG [HRP] secondary antibody” gave an O.D. 450 nm [1] of 0.055 O.D. 450 nm and an O.D. 450 nm [2] of 0.057 O.D. 450 nm.

For “inactivated, non-infected fetal calf serum (Atlas biologicals), negative control”, the % Inhibition [3] was 0% and the S/N Ratio [3] was 1.
